Values quoted from earlier work as cited in patent US20220031761A1, “COMPOSITIONS FOR PROMOTING SKIN REGENERATION, SKIN REJUVENATION, AND WOUND HEALING AND METHODS FOR PREPARATION AND USE THEREOF” (priority 2018, published 2022).

Conditions: in vivo

HGF: growth factor secreted by mesenchymal cells, eluted by placental and umbilical tissue
half-life of HGF: approximately 3 hours
